Our source for the EC50 values is EP2767548A2.

This assay addresses Human CD16 (biotinylated, Sino Biological Inc, cat#10389-H27H1-B) (human) (UniProt P08637). The assay can be described thus: ELISA, biotinylated CD16 captured on neutravidin, anti-human Fab-HRP detection. A general note: ELISA stands for enzyme-linked immunosorbent assay.

Human CD16 (biotinylated, Sino Biological Inc, cat#10389-H27H1-B) (human), sequence (P08637 17-208): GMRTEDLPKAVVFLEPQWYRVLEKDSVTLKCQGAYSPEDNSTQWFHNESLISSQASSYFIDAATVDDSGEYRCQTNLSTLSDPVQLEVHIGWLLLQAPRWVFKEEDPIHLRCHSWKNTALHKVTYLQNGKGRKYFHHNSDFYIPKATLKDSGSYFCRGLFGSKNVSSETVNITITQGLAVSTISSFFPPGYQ

Take Synagis (antibody): the EC50 turned out to be 6.15 µg/mL.

As usually defined, the EC50 is the concentration giving half of the maximal effect. Read a high EC50 as a need for much substance.
